In patent US20190135888A1 (Harvard, published 2019):

B2: GCGR extracellular domain (GCGR-ecd) (receptor, UniProt P47871 26-136, looked up)
chain: AQVMDFLFEKWKLYGDQCHHNLSLLPPPTELVCNRTFDKYSCWPDTPANTTANISCPWYLPWHHKVQHRFVFKRCGPDGQWVRGPRGQPWRDASQCQMDGEEIEVQKEVAK
notes: extracellular domain; also called glucagon receptor extracellular domain; not shown: Hexahistidine and WELQ protease site added during cloning; MST was run with tag and with
B4: human aP2 (fatty acid-binding protein, adipocyte, FABP4/aP2, Homo sapiens) (other)
chain: CDAFVGTWKLVSSENFDDYMKEVGVGFATRKVAGMAKPNMIISVNGDVITIKSESTFKNTEISFILGQEFDEVTADDRKVKSTITLDGGVLVHVQKWDGKSTTIKRKREDDKLVVECVMKGVTSTRVYERA
notes: Biotinylated with Sulfo-NHS-LC-Biotin for the Octet cross-reactivity assay; also called haP2; hFABP4

Tests used:
[1] = molecular target: B2; assay: binding curve, Response (ΔFnorm [‰]) against Ligand Concentration [nM]; table under the plot
[2] = molecular target: B2; assay: binding curve, Response (ΔFnorm [‰]) against Ligand Concentration [nM]; the table under the plot has no unit, nM is that of the axis; paragraph 390 names an Octet system; which partner is titrated is not given
[3] = molecular target: glucagon/aP2 complex (glucagon plus aP2, Example 1) (Mus musculus (Mouse), UniProt P04117 1-132, limits assumed); assay: BLI (BLItz): GCGR-ecd on biotin-glucagon immobilized on streptavidin sensors, in the presence of aP2
[4] = molecular target: T1, hFABP5/hMal1 (recombinant human FABP5, Sino Biological Inc.) (human, UniProt Q01469 1-135, limits assumed); assay: Octet RED384, biotinylated human FABP on streptavidin biosensors, antibody at 800 nM
T1 construct: Biotinylated with Sulfo-NHS-LC-Biotin and loaded on streptavidin biosensors; also called FABP5/Mal1; Mal1/FABP5
Experimental: The recombinant human proteins aP2 (generated at UCB in E. coli (see method below)), hFABP3 (Sino Biological Inc.) and hFABP5/hMall (Sino Biological Inc.) were biotinylated in a 5-fold molar excess of EZ-Link® Sulfo-NHS-LC-Biotin (Thermo Fisher Scientific) and purified from unbound biotin using a Zeba desalting column (Thermo Fisher Scientific). All binding studies were performed at 25° C. using a ForteBio Octet RED384 system (Pall ForteBio Corp.). […] Biosensors were then transferred back to PBS-T for 5 min. to measure dissociation. Non-specific binding of antibodies was monitored using unloaded biosensor tips.

[5] = molecular target: B4; assay: Biacore T200, anti-aP2 IgG captured on anti-mouse IgG Fc, aP2 titrated over it; steady-state fit for CA33
glucagon [6] = molecular target: T2, glucagon; assay: binding curve, Response (ΔFnorm [‰]) against Ligand Concentration [nM]; table under the plot
T2 construct: This id is also used for the endogenous glucagon of mouse serum; also called biotin-glucagon; biotinylated glucagon

glucagon [7] = molecular target: T2, glucagon; assay: binding curve, Response (ΔFnorm [‰]) against Ligand Concentration [nM]; the table under the plot has no unit, nM is that of the axis; paragraph 390 names an Octet system; which partner is titrated is not given

T2 sequence (peptide, as listed by the source): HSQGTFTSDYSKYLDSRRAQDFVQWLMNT
T1 sequence (Q01469 whole entry): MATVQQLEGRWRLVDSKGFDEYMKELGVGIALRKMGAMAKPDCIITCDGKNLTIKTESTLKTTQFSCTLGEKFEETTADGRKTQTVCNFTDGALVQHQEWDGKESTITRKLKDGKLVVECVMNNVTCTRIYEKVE

B1: aP2 (recombinant aP2 of Example 1) (other)
chain: MCDAFVGTWKLVSSENFDDYMKEVGVGFATRKVAGMAKPNMIISVNGDLVTIRSESTFKNTEISFKLGVEFDEITADDRKVKSIITLDGGALVQVQKWDGKSTTIKRKRDGDKLVVECVMKGVTSTRVYERA
notes: Used unlabelled, and amine-biotinylated in the scintillation proximity assay; also called FABP4
For B1, the logEC50 [1] was 2.51 and the EC50 [2] was 327 nM.

B2 was tested, and the Kd [3] was 54.1 nM.

B3: CA33 (Rabbit Ab 909) (antibody, V domains shown)
VH: QSVEESGGRLVTPGTPLTLTCTVSGFSLSTYYMSWVRQAPGKGLEWIGIIYPSGSTYCASWAKGRFTISKASTTVDLKITSPTTEDTATYFCARPDNDGTSGYLSGFGLWGQGTLVTVSS
VL: DVVMTQTPASVSEPVGGTVTIKCQASEDISRYLVWYQQKPGQPPKRLIYKASTLASGVPSRFKGSGSGTDFTLTISDLECDDAATYYCQCTYGTYAGSFFYSFGGGTEVVVE
notes: Rabbit variable regions; also called Rabbit Antibody 909; antibody 909
B3 was tested, and the binding result [4] was “no binding (tested: 800 nM)” and the Kd [5] was 2830 nM.

Work on B4 yielded a logEC50 (glucagon [6]) of 1.31 and an EC50 (glucagon [7]) of 20.3 nM.
